Measured values as given in US20180194839A1 (Novartis, published 2018).

T1: recombinant human IL-23 (R&D Systems Cat#1290-IL-010/CF) (human, UniProt Q9NPF7 20-189; P29460 23-328)
T1 construct: also called huIL-23
T1 sequence (looked up) 1: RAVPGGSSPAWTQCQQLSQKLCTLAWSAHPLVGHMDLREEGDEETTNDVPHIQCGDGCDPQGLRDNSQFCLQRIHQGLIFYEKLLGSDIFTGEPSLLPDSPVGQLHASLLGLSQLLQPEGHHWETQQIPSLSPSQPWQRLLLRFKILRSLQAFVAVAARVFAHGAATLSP
T1 sequence (looked up) 2: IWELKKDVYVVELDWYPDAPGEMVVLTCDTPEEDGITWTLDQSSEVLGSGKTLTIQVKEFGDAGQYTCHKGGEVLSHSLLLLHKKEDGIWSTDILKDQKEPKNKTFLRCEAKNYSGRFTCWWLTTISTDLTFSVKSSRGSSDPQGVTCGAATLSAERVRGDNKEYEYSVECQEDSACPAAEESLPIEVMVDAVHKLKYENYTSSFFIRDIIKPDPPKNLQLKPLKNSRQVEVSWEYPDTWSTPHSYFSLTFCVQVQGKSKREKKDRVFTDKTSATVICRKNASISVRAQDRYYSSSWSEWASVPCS

T2: recombinant human IL-20 (Novartis) (human, UniProt Q9NYY1 25-176, limits assumed)
T2 construct: also called huIL-20
T2 sequence (looked up): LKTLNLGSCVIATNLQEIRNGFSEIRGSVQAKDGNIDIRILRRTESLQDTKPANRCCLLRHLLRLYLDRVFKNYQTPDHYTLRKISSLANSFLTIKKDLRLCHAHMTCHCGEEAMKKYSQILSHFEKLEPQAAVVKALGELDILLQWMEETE

T3: recombinant human IL-17A (SEQ ID NO: 76) (human, UniProt Q16552 24-155, limits assumed)
T3 construct: homodimer; also called huIL-17A; rhuIL-17A
T3 sequence: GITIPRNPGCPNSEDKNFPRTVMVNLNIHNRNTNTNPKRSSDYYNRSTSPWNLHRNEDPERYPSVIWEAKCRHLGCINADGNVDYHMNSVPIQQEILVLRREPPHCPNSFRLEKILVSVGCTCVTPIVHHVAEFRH

T4: recombinant human IL-17A/F heterodimer (human, UniProt Q16552 24-155; Q96PD4 31-163, limits assumed)
T4 construct: heterodimer of an IL-17A subunit and an IL-17F subunit; also called huIL-17A/F; rhuIL-17A/F
T4 sequence (looked up) 1: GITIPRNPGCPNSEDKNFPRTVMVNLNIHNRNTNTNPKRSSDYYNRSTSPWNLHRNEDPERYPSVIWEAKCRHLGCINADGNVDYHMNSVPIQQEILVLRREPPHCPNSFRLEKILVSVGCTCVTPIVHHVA
T4 sequence (looked up) 2: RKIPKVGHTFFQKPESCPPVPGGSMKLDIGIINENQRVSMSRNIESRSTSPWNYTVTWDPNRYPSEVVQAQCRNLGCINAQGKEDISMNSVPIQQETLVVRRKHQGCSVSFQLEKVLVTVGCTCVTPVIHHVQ

T5: recombinant human IL-12 (R&D Systems Cat#219-IL-005/CF) (human, UniProt P29459 23-219; P29460 23-328)
T5 construct: also called huIL-12
T5 sequence (looked up) 1: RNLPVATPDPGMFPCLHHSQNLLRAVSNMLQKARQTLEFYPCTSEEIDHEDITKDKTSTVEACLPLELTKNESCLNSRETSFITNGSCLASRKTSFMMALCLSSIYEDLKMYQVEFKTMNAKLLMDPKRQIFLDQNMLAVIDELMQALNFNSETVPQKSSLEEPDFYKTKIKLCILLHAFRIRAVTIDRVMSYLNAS
T5 sequence (looked up) 2: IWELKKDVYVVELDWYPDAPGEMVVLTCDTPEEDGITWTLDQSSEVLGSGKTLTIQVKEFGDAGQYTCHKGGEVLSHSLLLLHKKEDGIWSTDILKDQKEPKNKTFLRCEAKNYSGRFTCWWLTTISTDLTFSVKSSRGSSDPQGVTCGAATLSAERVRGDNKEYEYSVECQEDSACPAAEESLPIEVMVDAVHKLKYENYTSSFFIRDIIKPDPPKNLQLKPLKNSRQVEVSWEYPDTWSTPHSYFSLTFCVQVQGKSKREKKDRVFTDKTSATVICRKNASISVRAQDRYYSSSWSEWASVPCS

T6: recombinant human IL-3 (R&D Systems Cat#203-IL/CF) (human, UniProt P08700 20-152)
T6 construct: also called huIL-3
T6 sequence (looked up): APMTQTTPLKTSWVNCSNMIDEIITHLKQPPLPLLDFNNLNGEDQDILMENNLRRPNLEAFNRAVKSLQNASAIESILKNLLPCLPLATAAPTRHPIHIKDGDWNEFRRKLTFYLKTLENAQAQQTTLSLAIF

T7: recombinant human IL-8 (R&D Systems Cat#208-IL-010/CF) (human, UniProt P10145 28-99)
T7 construct: also called huIL-8
T7 sequence (looked up): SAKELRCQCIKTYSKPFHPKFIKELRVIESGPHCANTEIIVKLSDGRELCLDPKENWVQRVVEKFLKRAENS

T8: recombinant human TGFβ2 (Novartis) (human, UniProt P61812 303-414)
T8 construct: also called huTGFβ2
T8 sequence (looked up): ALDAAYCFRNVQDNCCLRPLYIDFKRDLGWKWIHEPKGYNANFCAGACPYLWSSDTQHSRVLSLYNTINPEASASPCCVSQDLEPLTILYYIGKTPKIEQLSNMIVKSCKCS


How the values were obtained:
Test in all cases: ELISA, coated cytokine, Ab 10 µg/ml;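 note: antibodies incubated 3 h at room temperature on the coated wells, binding detected with alkaline phosphatase-conjugated anti-IgG secondary antibodies matching the species of each test antibody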
[1] = molecular target: T1, recombinant human IL-23 (R&D Systems …)
[2] = molecular target: T2, recombinant human IL-20 (Novartis)
[3] = molecular target: T3, recombinant human IL-17A (SEQ ID NO: 76)
[4] = molecular target: T4, recombinant human IL-17A/F heterodimer
[5] = molecular target: T9, recombinant human IL-1β (Novartis) (human, UniProt P01584 117-269)
T9 construct: also called huIL1β

[6] = molecular target: T10, recombinant human IL-13 (Novartis) (human, UniProt P35225 35-146, limits assumed)
T10 construct: also called huIL-13
T10 sequence (P35225 35-146 limits assumed): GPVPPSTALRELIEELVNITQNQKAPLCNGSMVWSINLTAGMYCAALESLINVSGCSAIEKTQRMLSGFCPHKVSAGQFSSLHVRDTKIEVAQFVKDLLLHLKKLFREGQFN

[7] = molecular target: T11, recombinant human IL-6 (R&D Systems Cat#206-IL-1010/CF) (human, UniProt P05231 30-212)
T11 construct: also called huIL-6

[8] = molecular target: T5, recombinant human IL-12 (R&D Systems …)
[9] = molecular target: T6, recombinant human IL-3 (R&D Systems …)
[10] = molecular target: T7, recombinant human IL-8 (R&D Systems …)
[11] = molecular target: T8, recombinant human TGFβ2 (Novartis)
[12] = molecular target: T12, recombinant human TNFα (Novartis) (human, UniProt P01375 77-233)
T12 construct: also called huTNFα
T12 sequence (P01375 77-233 limits assumed): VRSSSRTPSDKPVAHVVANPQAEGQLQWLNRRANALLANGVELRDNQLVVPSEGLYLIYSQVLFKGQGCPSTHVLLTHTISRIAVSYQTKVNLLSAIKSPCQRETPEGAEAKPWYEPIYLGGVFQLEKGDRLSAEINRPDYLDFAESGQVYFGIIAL

Row | Binder | O.D. [1] [O.D.] | O.D. [2] [O.D.] | O.D. [3] [O.D.] | O.D. [4] [O.D.] | O.D. [5] [O.D.] | O.D. [6] [O.D.] | O.D. [7] [O.D.] | O.D. [8] [O.D.] | O.D. [9] [O.D.] | O.D. [10] [O.D.] | O.D. [11] [O.D.] | O.D. [12] [O.D.]
1 | XAB4 (antibody, human IgG1, kappa, V domains shown, also called MB435 N56Q) VH: EVQLVESGGDLVQPGGSLRLSCAASGFTFSSYWMSWVRQAPGKGLEWVANIKQDGSEKYYVDSVKGRFTISRDNAKNSLYLQMNSLRAEDTAVYYCARDRGSLYYWGQGTLVTVSS VL: AIQLTQSPSSLSASVGDRVTITCRPSQGINWELAWYQQKPGKAPKLLIYDASSLEQGVPSRFSGSGSGTDFTLTISSLQPEDFATYYCQQFNSYPLTFGGGTKVEIKR | -0.022 | 0.039 | 3.18 | 3.1 | 0.015 | 0.019 | -0.015 | 0.009 | 0.167 | 0.018 | 0.018 | 0.009
2 | XAB1 (antibody, human IgG1, kappa, V domains shown, human IgG1/kappa monoclonal antibody; also called parental XAB1; XAB1 IgG) VH: EVQLVESGGDLVQPGGSLRLSCAASGFTFSSYWMSWVRQAPGKGLEWVANIKQDGSEKYYVDSVKGRFTISRDNAKNSLYLQMNSLRAEDTAVYYCARDRGSLYYWGQGTLVTVSS VL: AIQLTQSPSSLSASVGDRVTITCRPSQGIISALAWYQQKPGKAPKLLIYDASSLENGVPSRFSGSGSGTDFTLTISSLQPEDFATYYCQQFNSYPLTFGGGTKVEIKR | 0.085 | 0.335 | 2.75 | 2.64 | -0.11 | 0.125 | -0.044 | -0.097 | -0.049 | 0.058 | 0.146 | 0.289
